In patent US20200087400A1 (EUREKA THERAPEUTICS, published 2020):
Residue numbers refer to the chain shown, from its start.

Columns and labels:
[1] = target: T1, control peptide A2E-1/HLA-A*02:01 complex on T2 cells (member of the P19 mixture) (human); assay: flow cytometry, phage on T2 cells
T1 construct: Loaded on T2 cells as part of the mixture of 19 control peptides
Experimental: (§1) Individual phage clones from enriched phage display panning pools against PSA146/HLA-A*02:01 complex were incubated in the coated plates. Binding of the phage clones was detected by HRP-conjugated anti-M13 antibodies and developed using HRP substrate. The absorbance was read at 450 nm. […] Then, unique antibody clones were identified through DNA sequencing of ELISA-positive clones. […] T2 cells loaded with different peptides and β2M were first stained with purified scFv phage clones, followed by staining with a mouse anti-M13 mAb, and finally R-PE conjugated horse anti-mouse IgG from Vector Labs. Each step of the staining was performed for between 30-60 minutes on ice and the cells were washed twice between stainings. All 16 clones recognized PSA146-loaded T2 cells specifically. FIG. 3 provides examples of PSA146/HLA-A*02:01 specific phage clone binding to peptide-loaded T2 cells through FACS.

[2] = target: T2, control peptide A2E-2/HLA-A*02:01 complex on T2 cells (member of the P19 mixture) (human); assay: flow cytometry, phage on T2 cells
T2 construct: Loaded on T2 cells as part of the mixture of 19 control peptides
Experimental: as §1

[3] = target: T3, control peptide A2E-3/HLA-A*02:01 complex on T2 cells (member of the P19 mixture) (human); assay: flow cytometry, phage on T2 cells
T3 construct: Loaded on T2 cells as part of the mixture of 19 control peptides
Experimental: as §1

[4] = target: T4, control peptide A2E-4/HLA-A*02:01 complex on T2 cells (member of the P19 mixture) (human); assay: flow cytometry, phage on T2 cells
T4 construct: Loaded on T2 cells as part of the mixture of 19 control peptides
Experimental: as §1

[5] = target: T5, control peptide A2E-5/HLA-A*02:01 complex on T2 cells (member of the P19 mixture) (human); assay: flow cytometry, phage on T2 cells
T5 construct: Loaded on T2 cells as part of the mixture of 19 control peptides
Experimental: as §1

[6] = target: T6, control peptide A2E-6/HLA-A*02:01 complex on T2 cells (member of the P19 mixture) (human); assay: flow cytometry, phage on T2 cells
T6 construct: Loaded on T2 cells as part of the mixture of 19 control peptides
Experimental: as §1

[7] = target: T7, control peptide A2E-7/HLA-A*02:01 complex on T2 cells (member of the P19 mixture) (human); assay: flow cytometry, phage on T2 cells
T7 construct: Loaded on T2 cells as part of the mixture of 19 control peptides
Experimental: as §1

[8] = target: T8, control peptide A2E-8/HLA-A*02:01 complex on T2 cells (member of the P19 mixture) (human); assay: flow cytometry, phage on T2 cells
T8 construct: Loaded on T2 cells as part of the mixture of 19 control peptides
Experimental: as §1

[9] = target: T9, control peptide A2E-9/HLA-A*02:01 complex on T2 cells (member of the P19 mixture) (human); assay: flow cytometry, phage on T2 cells
T9 construct: Loaded on T2 cells as part of the mixture of 19 control peptides
Experimental: as §1

[10] = target: T10, control peptide A2E-10/HLA-A*02:01 complex on T2 cells (member of the P19 mixture) (human); assay: flow cytometry, phage on T2 cells
T10 construct: Loaded on T2 cells as part of the mixture of 19 control peptides
Experimental: as §1

[11] = target: T11, control peptide A2E-11/HLA-A*02:01 complex on T2 cells (member of the P19 mixture) (human); assay: flow cytometry, phage on T2 cells
T11 construct: Loaded on T2 cells as part of the mixture of 19 control peptides
Experimental: as §1

[12] = target: T12, control peptide A2E-13/HLA-A*02:01 complex on T2 cells (member of the P19 mixture) (human); assay: flow cytometry, phage on T2 cells
T12 construct: Loaded on T2 cells as part of the mixture of 19 control peptides
Experimental: as §1

[13] = target: T13, control peptide A2E-14/HLA-A*02:01 complex on T2 cells (member of the P19 mixture) (human); assay: flow cytometry, phage on T2 cells
T13 construct: Loaded on T2 cells as part of the mixture of 19 control peptides
Experimental: as §1

[14] = target: T14, control peptide A2E-15/HLA-A*02:01 complex on T2 cells (member of the P19 mixture) (human); assay: flow cytometry, phage on T2 cells
T14 construct: Loaded on T2 cells as part of the mixture of 19 control peptides
Experimental: as §1

[15] = target: T15, control peptide A2E-16/HLA-A*02:01 complex on T2 cells (member of the P19 mixture) (human); assay: flow cytometry, phage on T2 cells
T15 construct: Loaded on T2 cells as part of the mixture of 19 control peptides
Experimental: as §1

[16] = target: T16, control peptide A2E-17/HLA-A*02:01 complex on T2 cells (member of the P19 mixture) (human); assay: flow cytometry, phage on T2 cells
T16 construct: Loaded on T2 cells as part of the mixture of 19 control peptides
Experimental: as §1

[17] = target: T17, control peptide A2E-19/HLA-A*02:01 complex on T2 cells (member of the P19 mixture) (human); assay: flow cytometry, phage on T2 cells
T17 construct: Loaded on T2 cells as part of the mixture of 19 control peptides
Experimental: as §1

[18] = target: T18, control peptide A2E-21/HLA-A*02:01 complex on T2 cells (member of the P19 mixture) (human); assay: flow cytometry, phage on T2 cells
T18 construct: Loaded on T2 cells as part of the mixture of 19 control peptides
Experimental: as §1

[19] = target: T19, control peptide A2E-23/HLA-A*02:01 complex on T2 cells (member of the P19 mixture) (human); assay: flow cytometry, phage on T2 cells
T19 construct: Loaded on T2 cells as part of the mixture of 19 control peptides
Experimental: as §1

[20] = target: T20, Bio-P19 member A2E-23 (chain 2 carries a C-terminal BirA substrate peptide (BSP), enzymatically biotinylated; the BSP letters are not given in the patent and are left out); assay: phage ELISA, streptavidin plate, anti-M13-HRP
T20 construct: also called biotinylated control peptide A2E-23/HLA-A*02:01 monomer
Outline: (§2)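 Phage ELISA: individual scFv phage clones from panning pools enriched against PSA146/HLA-A*02:01 were incubated in coated streptavidin plates; binding was detected with HRP anti-M13 and HRP substrate, read at 450 nm. For flow cytometry, T2 cells loaded with peptide and β2M were stained with purified phage clones.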

[21] = target: T21, Bio-P19 member A2E-2 (chain 2 carries a C-terminal BirA substrate peptide (BSP), enzymatically biotinylated; the BSP letters are not given in the patent and are left out); assay: phage ELISA, streptavidin plate, anti-M13-HRP
T21 construct: also called biotinylated control peptide A2E-2/HLA-A*02:01 monomer
Outline: as §2

[22] = target: T22, Bio-P19 member A2E-3 (chain 2 carries a C-terminal BirA substrate peptide (BSP), enzymatically biotinylated; the BSP letters are not given in the patent and are left out); assay: phage ELISA, streptavidin plate, anti-M13-HRP
T22 construct: also called biotinylated control peptide A2E-3/HLA-A*02:01 monomer
Outline: as §2

[23] = target: T23, Bio-P19 member A2E-9 (chain 2 (heavy): C-terminal BirA substrate peptide, biotinylated there by BirA; tag letters not given, left out); assay: phage ELISA, streptavidin plate, anti-M13-HRP
T23 construct: also called biotinylated control peptide A2E-9/HLA-A*02:01 monomer; not shown: BirA substrate peptide (BSP) tag at the C-terminus of the heavy chain
Outline: as §2

Measured: binding result

B1: PSA146/HLA-A*02:01-specific scFv phage clone #3 (scFv, V domains shown)
VH: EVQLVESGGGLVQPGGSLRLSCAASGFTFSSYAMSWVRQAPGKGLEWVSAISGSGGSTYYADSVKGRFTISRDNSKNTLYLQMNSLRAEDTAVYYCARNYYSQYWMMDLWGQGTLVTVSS
VL: QSVLTQPPSVSGAPGQRVTISCTGSSSNFGAGYDVHWYQQLPGAAPKLLIYGDTNRPSGVPDRFSGSKSGTSASLAITGLQAEDEADYYCQSYDTSLSGSVFGGGTKLTVLG
no binding: all assays above

B2: PSA146/HLA-A*02:01-specific scFv phage clone #5 (scFv, V domains shown)
VH: QVQLVQSGAEVKKPGDSVKVSCKPSGYNFLNYGINWVRQAPGQGLEWMGWISTYTGNTNYAQKLQGRVTFTTDTSTSTAYMEMRSLRSDDTAVYYCARSSEYYTWDHWGQGTLVTVSS
VL: B1 VL with F29I, A44T, D53N, T54S, T95S, S100W
no binding: all assays above

B3: PSA146/HLA-A*02:01-specific scFv phage clone #6 (scFv, V domains shown)
VH: EVQLVQSGAEVKKPGASVKVSCKASGYTFTGYYIHWVRQAPGQGLEWMGGFDPEDGETIYAQKFQDRVTMTADTSTDTAYMELSSLRSEDTAVYYCARYGFDYWGQGTLVTVSS
VL: QAVVTQEPSLTVSPGGTVTLTCASSTGAVTSGYYPNWFQLKPGQAPRALIYTTGKKHSWAPARFSGSLLGGKAALTLSGVQPEDEAEYYCLLYSGGVWVFGGGTKLTVLG
no binding: all assays above

B4: PSA146/HLA-A*02:01-specific scFv phage clone #2 (scFv, V domains shown)
VH: EVQLVQSGAEVKRPGSSVKVSCKASGGTFSSYAINWVRRAPGQGLEWMGKIIPIPGITNYAQKFQDRVTFTADTSTNIAYMELSSLRSEDTAMYYCARSYKWGSSLVDAWGQGTLVTVSS
VL: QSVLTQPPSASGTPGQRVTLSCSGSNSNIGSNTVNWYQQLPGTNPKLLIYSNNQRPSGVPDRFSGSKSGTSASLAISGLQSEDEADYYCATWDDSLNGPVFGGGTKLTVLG
no binding: all assays above

B5: PSA146/HLA-A*02:01-specific scFv phage clone #17 (scFv, V domains shown)
VH: QMQLVQSGAEVKKPGESLKISCKGSGYSFTSYWIGWVRQMPGKGLEWMGIIYPGDSDTRYSPSFQGQVTISADKSISTAYLQWSSLKASDTAMYYCARLVVPDAFDIWGQGTMVTVSS
VL: QSVVTQPPSVSAAPGQKVTISCSGSSSNIGNNYVSWYQQLPGTAPKLLIYDNYKRPSGIPDRFSGSKSGTSATLGITGLQTGDEADYYCGTWDSSLSAGVFGGGTKLTVLG
not listed: [20] | [21] | [22]
no binding: all other assays above
